Data taken from patent US20070009511A1 (Bristol-Myers Squibb, published 2007).

Target: T1, CD86Ig (UniProt P42081 24-247)
T1 construct: extracellular domain; Immobilized on BIAcore chips; also called soluble CD86Ig; B7-2
Experiment: SPR, CD86Ig immobilized, monomer against dimer

T1 sequence (P42081 24-247): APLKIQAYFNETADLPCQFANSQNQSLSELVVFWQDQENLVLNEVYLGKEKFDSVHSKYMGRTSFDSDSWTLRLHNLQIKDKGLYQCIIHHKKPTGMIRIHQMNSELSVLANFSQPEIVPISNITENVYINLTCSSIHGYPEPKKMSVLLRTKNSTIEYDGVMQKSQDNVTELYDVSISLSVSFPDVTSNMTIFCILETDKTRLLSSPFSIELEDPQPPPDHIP

fold lower binding affinity than the respective dimer (L104EA29YIg): 35 to 80 fold
B1: L104EA29YXC120S (receptor)
chain: MHVAQPAVVLASSRGIASFVCEYASPGKYTEVRVTVLRQADSQVTEVCAATYMMGNELTFLDDSICTGTSSGNQVNLTIQGLRAMDTGLYICKVELMYPPPYYEGIGNGTQIYVIDPEPSPDSD
notes: also called single chain L104EA29Y extracellular domain
